# Measured values published in patent publication US20250242064A1, “CXCR4-TARGETING COMPOUNDS, AND METHODS OF MAKING AND USING THE SAME” (PROVINCIAL HEALTH SERVICES AUTHORITY, priority 2022, published 2025).
# Where a SMILES comes first, the peptide text is derived from it. Bridges are numbered along the chain shown (N, C = ends). Side-chain parts run from the residue outwards. [ ]: non-standard residue; d: D form. The star is where a group is joined. X2 = O=C(O)CN1CCOCCN(CC(=O)O)CCN(CC(=O)*)CCOCCN(CC(=O)O)CC1; 2Nal = N[C@@H](Cc1ccc2ccccc2c1)C(=O)O; Lys(iPr) = CC(C)NCCCC[C@H](N)C(=O)O; Cya = N[C@@H](CS(=O)(=O)O)C(=O)O
# Assay: in vivo
# Design: species or system mice
# Settings: male, NOD.Cg-Rag1tm1Momll2rgtm1Wjl/SzJ (NRG), mouse, iv, total radioactivity, Mean; for tissue uptake at 1 h / tissue uptake at 3 h / tissue uptake at 24 h / tissue uptake at 72 h / tissue uptake at 120 h: Biodistribution
# Procedure: The Z138 Mantle cell lymphoma cell line was purchased from the American Type Culture Collection (ATCC©CRL-3001). The cell line was cultured in a 5% CO2 atmosphere at 37° C. in a humidified incubator with IMDM medium supplemented with 10% fetal bovine serum, 100 I.U./mL penicillin, and 100 μg/mL streptomycin.
# [^68Ga]GaCl3 was eluted from an iThemba Labs generator with a total of 4 mL of 0.1 M HCl. The eluted [^68Ga]GaCl3 solution was added to 2 mL of concentrated HCl. This radioactive mixture was then added to a DGA resin column and washed with 3 mL of 5 M HCl. The column was then dried with air and the [^68Ga]GaCl3 (0.10-0.50 GBq) was eluted with 0.5 mL of water into a vial containing a solution of the unlabeled precursor (25 μg) in 0.7 mL HEPES buffer (2 M, pH 5.3). The reaction mixture was heated in a microwave oven (Danby; DMW7700WDB) for 1 min at power setting 2. The mixture was purified by semi-prep HPLC and quality control was performed via analytical HPLC with the co-injection of the unlabeled standard with a one-twelfth of the radiotracer. Radiochemical yields (decay-corrected) were >50% and radiochemical purities were >95%.
# Animal experiments were performed in accordance with guidelines established by the Canadian Council on Animal Care, under a research protocol approved by the Animal Ethics Committee of the University of British Columbia. For all studies, male NOD.Cg-Rag1tm1Momll2rgtm1Wjl/SzJ (NRG) mice were used and cells injected in a 100 μL solution of 1:1 ratio of PBS/Matrigel. For preclinical imaging and biodistribution studies, 5×10^6 cells of Z138, cells were subcutaneously inoculated on the left or right flank and tumors were grown to a size of 200-300 mm^3. […]
# Under isoflurane anesthesia (2-2.5% isoflurane in 2 L/min 02), mice were injected intravenously with [^68Ga]Ga-BL34L6 or [^68Ga]Ga-BL34L7. Mice were euthanized by CO2 inhalation after anesthesia with isoflurane. Tissues were harvested, washed in PBS, patted dry, weighed, and then assayed radioactivity on a gamma counter. Counted radioactivities were converted to percentage injected dose per gram of tissue (% ID/g) using a calibration curve.
smiles,measurement,setting,value
"CC(C)NCCCC[C@H](NC(=O)[C@H]1CCC(=O)N[C@@H](CCCCNC(=O)[C@H](CS(=O)(=O)O)NC(=O)CN2CCOCCN(CC(=O)O)CCN(CC(=O)O)CCOCCN(CC(=O)O)CC2)C(=O)N[C@@H](Cc2ccc(O)cc2)C(=O)N[C@@H](CCCCNC(C)C)C(=O)N[C@H](CCCNC(=N)N)C(=O)N[C@@H](Cc2ccc3ccccc3c2)C(=O)N[C@H](C)C(=O)N1)C(N)=O [[^177Lu]Lu-crown-BL34L20, metal not drawn] (K([Cya-X2])Y[Lys(iPr)][dR][2Nal][dA][dE][Lys(iPr)]-NH2; lactam N-7)",tissue uptake at 1 h,Adrenals,0.2 %ID/g
same,tissue uptake at 3 h,Adrenals,0.11 %ID/g
same,tissue uptake at 24 h,Adrenals,0.1 %ID/g
same,tissue uptake at 72 h,Adrenals,0.08 %ID/g
same,tissue uptake at 120 h,Adrenals,0.05 %ID/g
same,tissue uptake at 1 h,Blood,0.35 %ID/g
same,tissue uptake at 3 h,Blood,0.08 %ID/g
same,tissue uptake at 24 h,Blood,0.02 %ID/g
same,tissue uptake at 72 h,Blood,0.01 %ID/g
same,tissue uptake at 1 h,Bone,0.15 %ID/g
same,tissue uptake at 3 h,Bone,0.15 %ID/g
same,tissue uptake at 24 h,Bone,0.51 %ID/g
same,tissue uptake at 72 h,Bone,0.66 %ID/g
same,tissue uptake at 120 h,Bone,0.56 %ID/g
same,tissue uptake at 1 h,Brain,0.01 %ID/g
same,tissue uptake at 3 h,Brain,0.01 %ID/g
same,tissue uptake at 24 h,Brain,0.01 %ID/g
same,tissue uptake at 72 h,Brain,0.01 %ID/g
same,tissue uptake at 1 h,Heart,0.14 %ID/g
same,tissue uptake at 3 h,Heart,0.06 %ID/g
same,tissue uptake at 24 h,Heart,0.05 %ID/g
same,tissue uptake at 72 h,Heart,0.05 %ID/g
same,tissue uptake at 120 h,Heart,0.05 %ID/g
same,tissue uptake at 1 h,Kidneys,3.02 %ID/g
same,tissue uptake at 3 h,Kidneys,2.45 %ID/g
same,tissue uptake at 24 h,Kidneys,1.81 %ID/g
same,tissue uptake at 72 h,Kidneys,0.94 %ID/g
same,tissue uptake at 120 h,Kidneys,0.59 %ID/g
same,tissue uptake at 1 h,Liver,0.73 %ID/g
same,tissue uptake at 3 h,Liver,0.77 %ID/g
same,tissue uptake at 24 h,Liver,0.81 %ID/g
same,tissue uptake at 72 h,Liver,0.67 %ID/g
same,tissue uptake at 120 h,Liver,0.59 %ID/g
same,tissue uptake at 1 h,Lungs,0.53 %ID/g
same,tissue uptake at 3 h,Lungs,0.28 %ID/g
same,tissue uptake at 24 h,Lungs,0.2 %ID/g
same,tissue uptake at 72 h,Lungs,0.17 %ID/g
same,tissue uptake at 120 h,Lungs,0.15 %ID/g
same,tissue uptake at 1 h,Muscle,0.09 %ID/g
same,tissue uptake at 3 h,Muscle,0.03 %ID/g
same,tissue uptake at 24 h,Muscle,0.03 %ID/g
same,tissue uptake at 72 h,Muscle,0.02 %ID/g
same,tissue uptake at 120 h,Muscle,0.01 %ID/g
same,tissue uptake at 1 h,Pancreas,0.12 %ID/g
same,tissue uptake at 3 h,Pancreas,0.04 %ID/g
same,tissue uptake at 24 h,Pancreas,0.04 %ID/g
same,tissue uptake at 72 h,Pancreas,0.03 %ID/g
same,tissue uptake at 120 h,Pancreas,0.03 %ID/g
same,tissue uptake at 1 h,Small Intestine,0.23 %ID/g
same,tissue uptake at 3 h,Small Intestine,0.1 %ID/g
same,tissue uptake at 24 h,Small Intestine,0.17 %ID/g
same,tissue uptake at 72 h,Small Intestine,0.08 %ID/g
same,tissue uptake at 120 h,Small Intestine,0.06 %ID/g
same,tissue uptake at 1 h,Spleen,0.29 %ID/g
same,tissue uptake at 3 h,Spleen,0.23 %ID/g
same,tissue uptake at 24 h,Spleen,0.26 %ID/g
same,tissue uptake at 72 h,Spleen,0.24 %ID/g
same,tissue uptake at 120 h,Spleen,0.22 %ID/g
same,tissue uptake at 1 h,Stomach,0.08 %ID/g
same,tissue uptake at 3 h,Stomach,0.09 %ID/g
same,tissue uptake at 24 h,Stomach,0.52 %ID/g
same,tissue uptake at 72 h,Stomach,0.12 %ID/g
same,tissue uptake at 120 h,Stomach,0.14 %ID/g
same,tissue uptake at 1 h,Testes,0.11 %ID/g
same,tissue uptake at 3 h,Testes,0.04 %ID/g
same,tissue uptake at 24 h,Testes,0.04 %ID/g
same,tissue uptake at 72 h,Testes,0.03 %ID/g
same,tissue uptake at 120 h,Testes,0.03 %ID/g
same,tissue uptake at 1 h,Z138 Tumor,13.7 %ID/g
same,tissue uptake at 3 h,Z138 Tumor,11.7 %ID/g
same,tissue uptake at 24 h,Z138 Tumor,7.28 %ID/g
same,tissue uptake at 72 h,Z138 Tumor,3.47 %ID/g
same,tissue uptake at 120 h,Z138 Tumor,2.38 %ID/g
same,tissue to tissue ratio at 1 h,Tumor-to-Blood ratio,39.4
same,tissue to tissue ratio at 3 h,Tumor-to-Blood ratio,147
same,tissue to tissue ratio at 24 h,Tumor-to-Blood ratio,301
same,tissue to tissue ratio at 72 h,Tumor-to-Blood ratio,396
same,tissue to tissue ratio at 120 h,Tumor-to-Blood ratio,607
same,tissue to tissue ratio at 1 h,Tumor-to-Bone ratio,94
same,tissue to tissue ratio at 3 h,Tumor-to-Bone ratio,83.2
same,tissue to tissue ratio at 24 h,Tumor-to-Bone ratio,15.3
same,tissue to tissue ratio at 72 h,Tumor-to-Bone ratio,5.53
same,tissue to tissue ratio at 120 h,Tumor-to-Bone ratio,5.33
same,tissue to tissue ratio at 1 h,Tumor-to-Kidney ratio,4.54
same,tissue to tissue ratio at 3 h,Tumor-to-Kidney ratio,4.78
same,tissue to tissue ratio at 24 h,Tumor-to-Kidney ratio,4.01
same,tissue to tissue ratio at 72 h,Tumor-to-Kidney ratio,3.69
same,tissue to tissue ratio at 120 h,Tumor-to-Kidney ratio,4.1
same,tissue to tissue ratio at 1 h,Tumor-to-Muscle ratio,161
same,tissue to tissue ratio at 3 h,Tumor-to-Muscle ratio,430
same,tissue to tissue ratio at 24 h,Tumor-to-Muscle ratio,281
same,tissue to tissue ratio at 72 h,Tumor-to-Muscle ratio,175
same,tissue to tissue ratio at 120 h,Tumor-to-Muscle ratio,178
same,tissue to tissue ratio at 1 h,Tumor-to-Pancreas ratio,140
same,tissue to tissue ratio at 3 h,Tumor-to-Pancreas ratio,276
same,tissue to tissue ratio at 24 h,Tumor-to-Pancreas ratio,198
same,tissue to tissue ratio at 72 h,Tumor-to-Pancreas ratio,103
same,tissue to tissue ratio at 120 h,Tumor-to-Pancreas ratio,78
